Patent publication US20150352207A1, “USE OF ANTIBODIES AGAINST ICAM-1 IN COMBINATION WITH AN ANTI CANCER DRUG IN THE TREATMENT OF PATIENTS” (BIOINVENT INTERNATIONAL AB, priority 2013, published 2015)
Entries after “also recorded” stand apart in the source; their conditions may differ. Like-named read-outs stand apart in the source and are kept apart here.

Legend:
EJM myeloma cells = experiment: Subcutaneous scid myeloma xenograft, EJM; format: in vivo, scid mice; details: 2 mg/kg twice weekly
Procedure: Antibody treatment with 2 mg/kg B11 or control IgG1 was started at Day 1 and was continued on a twice-weekly intraperitoneal dosing regimen. Mice were sacrificed when tumor sizes reached the ethical limit.

ARH-77 cells = experiment: Disseminated scid/ARH-77 model of multiple myeloma; format: in vivo, scid mice; details: i.v. on Days 7, 10, 13, 16; antibody 2 mg/kg, bortezomib 0.5 mg/kg; vs control treatment
Procedure: (§1) ARH-77 cells or RPMI-8226 were injected intravenously into the SCID mice. (A) ARH-77 model. Animals received intravenous injections with antibody at 2 mg/kg or bortezomib (Velcade) at 0.5 mg/kg on Days 7, 10, 13, and 16 (as indicated by arrows in the graph). (B) RPMI-8226-model. B11 or control mAb was administered i.v at 2 mg/kg, twice weekly for 8 weeks, bortezomid, at 1 mg/kg, once weekly for 8 weeks, lenalidomide p.o with 2 mg/kg for 2 cycles consisting of 5 days of treatment and 2 days of wash out, melphalan i.v at 3 mg/kg, once weekly for 8 weeks, and dexamethasone (DXH) at 6 mg/kg/inj 3 times/week for 2 consecutive weeks. There were 6-10 mice per treatment group. Statistical significance was calculated using Log-rank Graphpad Prism software and determined at ***p<0.001. (C) To study the ICAM-1 level on human cells, the cells from different organs were stained and gated for CD38+/mCD45−/B11+. Left panel indicates the percentage of B11 positive cells in CD38+/mCD45 population and right panel the mean fluorescent intensity of the positive cells.
(§2) The anti-myeloma effect of B11 was examined in a disseminated model of multiple myeloma. The early and advanced disseminated model of multiple myeloma was performed at Oncodesign, Dijon, France. Briefly: 1×10^6 (early) or 5×10^6 (advanced) ARH-77 tumor cells in 200 μL of RPMI 1640 were injected intravenously (i.v) into the caudal vein of female scid mice (D0). Tumor cell injections were performed twenty four to forty eight hours after a whole body irradiation of mice (1.8 Gy, ^60Co, INRA, BRETENNIERES). The treatment was started at D5 RPMI-8226 model or D7 (ARH-77 model) […]. B11 or control mAb was administered i.v. at 2 mg/kg, twice weekly for 8 weeks, bortezomib, at 1 mg/kg, once weekly for 8 weeks, lenalidomide p.o with 2 mg/kg for 2 cycles consisting of 5 days of treatment and 2 days of wash out, melphalan i.v. at 3 mg/kg, once weekly for 8 weeks, and dexamethasone at 6 mg/kg 1 injected 3 times a week for 2 consecutive weeks.
The disseminated model of scid/ARH-77 is a well-established experimental model that resembles human multiple myeloma disease progression and disease manifestation in many respects (33). We utilized this model to further characterize IgG B11 anti-myeloma activity (FIG. 6A). Intravenous injection of irradiated scid mice with 1×10^6 ARH-77 cells was previously shown to result in their dissemination and establishment in mouse bone-marrow, and resulting osteolytic bone-lesions and hypercalcemia, and ultimately, in animal paralysis or difficulty of breathing at which time animals were immediately sacrificed. […]

RPMI-8226 myeloma cells = experiment: Advanced disseminated RPMI-8226 multiple myeloma model; format: in vivo, SCID mice; details: for survival: B11 2 mg/kg i.v. twice weekly for 8 weeks
Procedure: as §1, §2
200 μl containing 10×10^6 of RPMI 8226 tumour cells was intravenously injected into the caudal vein of female SCID mice. The mice had been subjected to a whole body irradiation of mice (1.8 Gy, ^60Co, BioMEP) 24 to 72 hours prior to cell injection. At D1, tumor injected mice were randomized according to their individual body weight. All treatment started day 5 after tumor cell administration except for ALKERAN®, which started at day 10. All treatments were injected in a dose volume of 10 ml/kg/inj. Mice received one of the following treatments:
Monoclonal anti-ICAM mAb or control mAb was administered i.v in a PBS solution containing at 2 mg/kg, 2 times/week for 8 consecutive weeks. […]

[1] = system: HUVEC, HMVEC or peripheral blood B cells; experiment: ADCC of normal ICAM-1 expressing cells; format: cell-based
From the text: Buffy coats from human donors (ordered through Blodcentralen, Lund) were used to isolate peripheral blood mononuclear cells (PBMCs), and subsequently NK cells. Briefly, peripheral blood components were separated using Ficoll Paque PLUS (Amersham Biosciences, Sweden) in LeucoSep tubes (Greiner Bio-One). The PBMC fraction was removed and thoroughly washed in ice-cold DPBS (Invitrogen), before magnetic labeling and separation of the NK cell population using positive or negative NK cell isolation kits and MACS LS columns (Miltenyi Biotec). The purity of the obtained NK cell fractions was analyzed using flow cytometry, after staining with α-CD56 antibodies (BD Biosciences). Target cells were harvested, and incubated in medium with or without the respective antibodies (2 μg/mL) for 60 min on ice. Cells were thereafter washed and resuspended in cold medium before dispension into FACS tubes. Subsequently, isolated NK cells were diluted in ADCC medium and dispensed together with the respective antibody-coated target cells at varying effector/target cell ratios (40:1, 20:1, 5:1 and 1:1). All experiments were performed in triplicates. After completed incubation ToPo-Pro-3 dye and counting beads (Invitrogen) were added and cells were analyzed for membrane permeabilization using flow cytometry.

[2] = Serum antibody levels of treated xenografted mice (ELISA); format: in vivo; details: serum at end of experimentation
Procedure: We next performed a dose-titration experiment to establish IgG B11 in vivo potency and the minimal dose achieving maximal anti-tumor activity, using the scid/ARH-77 model system. […] Mouse serum antibody trough concentrations were determined by ELISA at the end of experimentation. Trough antibody concentrations were then plotted against percent of maximal in vivo anti-tumour activity, and against percent of maximal ICAM-1 receptor occupancy and tumour cell PCD at corresponding antibody concentrations in vitro (FIGS. 3C, 3D, 3E, 3F and 3G). Strikingly, a near perfect correlation between antibody concentration and in vitro tumour cell receptor occupancy, in vitro tumor cell PCD, and in vivo anti-tumour activity was observed, consistent with ICAM-1 dependent direct cell cytotoxicity underlying in vivo anti-tumour activity.

recombinant human ICAM-1 = recombinant human ICAM-1 (Homo sapiens, UniProt P05362); experiment: ELISA binding to recombinant human ICAM-1, ICAM-2 or ICAM-3; details: versus ICAM-2, ICAM-3
recombinant human ICAM-1, sequence (P05362 28-532): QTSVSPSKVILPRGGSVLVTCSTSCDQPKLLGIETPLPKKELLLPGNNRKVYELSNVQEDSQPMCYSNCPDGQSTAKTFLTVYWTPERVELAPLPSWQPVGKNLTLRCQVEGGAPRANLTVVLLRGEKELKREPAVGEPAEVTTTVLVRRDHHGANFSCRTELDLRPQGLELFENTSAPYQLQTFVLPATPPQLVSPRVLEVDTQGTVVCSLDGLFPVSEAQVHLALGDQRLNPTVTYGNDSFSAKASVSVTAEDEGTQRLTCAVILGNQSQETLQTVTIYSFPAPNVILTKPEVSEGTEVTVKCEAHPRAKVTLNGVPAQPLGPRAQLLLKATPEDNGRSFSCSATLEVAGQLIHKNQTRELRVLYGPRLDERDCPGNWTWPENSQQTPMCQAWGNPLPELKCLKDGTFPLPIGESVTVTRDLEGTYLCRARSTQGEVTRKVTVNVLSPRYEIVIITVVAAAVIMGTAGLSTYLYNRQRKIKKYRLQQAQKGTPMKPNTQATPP

B1: IgG B11: novel human ICAM-1 antibody targeting the B11 epitope, isolated from the naïve antibody library n-CoDeR (antibody, V domains shown)
VH: EVQLLESGGGLVQPGGSLRLSCAASGFTFSNAWMSWVRQAPGKGLEWVAFIWYDGSNKYYADSVKGRFTISRDNSKNTLYLQMNSLRAEDTAVYYCARYSGWYFDYWGQGTLVTVSS
VL: QSVLTQPPSASGTPGQRVTISCTGSSSNIGAGYDVHWYQQLPGTAPKLLIYDNNNRPSGVPDRFSGSKSGTSASLAISGLRSEDEADYYCQSYDSSLSAWLFGGGTKLTVLG
modifications: B11 antibody variable H region; B11 antibody variable L region
reduction of myeloma tumor growth (EJM myeloma cells): 98% | animal survival (ARH-77 cells): increased mean survival time | time to symptomatic disease onset (ARH-77 cells): doubled the time to symptomatic disease onset | survival (RPMI-8226 myeloma cells): significantly enhanced survival; also recorded: trend towards improved survival in IgG B11 treated mice compared to mice treated with the immunomodulatory drug revlimid | survival (RPMI-8226 myeloma cells; listed as B11, 2 mg/kg): significantly enhances survival; also recorded: highly improved survival | survival (RPMI-8226 myeloma cells; listed as anti ICAM-1 mAb): more effective compared to other SOC single therapies | disease onset (RPMI-8226 myeloma cells; B11 2 mg/kg i.v. twice weekly, compared to bortesomib and dexamethasone): delayed disease onset | ADCC of normal cells [1]: did not confer ADCC or CDC | ADCC of normal cells ([1]; listed as B11): not significantly affected | In vivo IgG Levels ([2]; Dose 0.02 mg/kg): 0.06 ± 0.02 µg/mL | In vivo IgG Levels ([2]; Dose 0.2 mg/kg): 1.2 ± 0.4 µg/mL | In vivo IgG Levels ([2]; Dose 2 mg/kg): 20 ± 2.9 µg/mL | specificity for ICAM-1 (recombinant human ICAM-1): high specificity
